For 1 molecule, Kd results are on record in article PMC9798103 (The Journal of Cell Biology, 2022).

This experiment addresses F-actin (polymerised from Ca2+-ATP G-actin of rabbit skeletal muscle) (rabbit, UniProt P68135 1-377). Nature of the experiment: co-sedimentation.

B1: N-terminal half of C. elegans RHGF-1 (RHGF-1-N) (domain or fragment)
chain: MRSYEFVTNTPLKLDRHKVYLVDDVAVTRTVPLSQPLSPSTASSSYNMIERCVVVQRQPDGFGLTVNSEFPVYVHTLKQDGAAYCAGVRQGDRIVKVNGMSVSPNNHKEVLQMISNGHNVALTLLGKPPDPISNISFPNQQVEQKIHIADPVLIEASSKSWRQRRNELLGQMVAEERRNVEGLRESSQNGEKIDRALKRIVSLQSQLKQLKPESIISDSQKSLTNLNMDIDSDEEENDVVYLPESQGGPFSNLAELKTHPAHLAVFINYLLLHGNPSSLFFYLITDAYQSAYGTAKEFRRWAFEIFSTFIIPNSPMCIPNSNQSVIQPIDKIMCMTAEHIGDSDTDTLKRIFVPGRQRAVTDINMYLNDFRQKKQLGGQVSESTNQLTHMVRGDMTMEHRVGEQMLFRCLEQCSNSTDFDSCEIRTQSIISSLATVIKIVLGKTSSSSNEKMLDKFPQFMARDKPPGKSRKLPANIKNRIQVKGHSFSINSVNTVHYCYQCRDAIWGMQPWIYFCSNCDVKVHPHCTSALTDACYPVTQSKQKSKSRLSGLIGRSDANDDEDSGSNARHEQPNVKSTSSDSGIGGEHNMDRGLVSRSHSMRYRVATLPQSLSEDKVSIPSSKRDRSVTPSWQRST
The molecule B1 displayed a dissociation constant Kd of 5.25 µM.

A word on the Kd: it is a measure of binding affinity in units of concentration. A higher Kd goes with lower affinity.
